Data as given in article PMC3357558.

How the values were obtained:
[1] = biological target: ITK-BTK((SH3)): ITK whose SH3 domain is replaced with the SH3 domain of BTK, fluorescent protein chimera (UniProt P35991)
[2] = biological target: ITK-BTK((SH3)): ITK whose SH3 domain is replaced with the SH3 domain of BTK, fluorescent protein chimera (UniProt P35991); test: co-IP; Jurkat (JTag) cells transfected with GFP-ITK constructs, stimulated or not with 5 ug/mL anti-CD3e OKT3 cross-linked with rabbit anti-mouse IgG for 1 minute at 37°C, lysed; FP-ITK immunoprecipitated with anti-GFP IgG; SLP-76 and ITK immunoblotted; association index by densitometry against the nonstimulated lane

Chain of UniProt P35991 (P35991 whole entry, stated change not applied, the tested form may be a part): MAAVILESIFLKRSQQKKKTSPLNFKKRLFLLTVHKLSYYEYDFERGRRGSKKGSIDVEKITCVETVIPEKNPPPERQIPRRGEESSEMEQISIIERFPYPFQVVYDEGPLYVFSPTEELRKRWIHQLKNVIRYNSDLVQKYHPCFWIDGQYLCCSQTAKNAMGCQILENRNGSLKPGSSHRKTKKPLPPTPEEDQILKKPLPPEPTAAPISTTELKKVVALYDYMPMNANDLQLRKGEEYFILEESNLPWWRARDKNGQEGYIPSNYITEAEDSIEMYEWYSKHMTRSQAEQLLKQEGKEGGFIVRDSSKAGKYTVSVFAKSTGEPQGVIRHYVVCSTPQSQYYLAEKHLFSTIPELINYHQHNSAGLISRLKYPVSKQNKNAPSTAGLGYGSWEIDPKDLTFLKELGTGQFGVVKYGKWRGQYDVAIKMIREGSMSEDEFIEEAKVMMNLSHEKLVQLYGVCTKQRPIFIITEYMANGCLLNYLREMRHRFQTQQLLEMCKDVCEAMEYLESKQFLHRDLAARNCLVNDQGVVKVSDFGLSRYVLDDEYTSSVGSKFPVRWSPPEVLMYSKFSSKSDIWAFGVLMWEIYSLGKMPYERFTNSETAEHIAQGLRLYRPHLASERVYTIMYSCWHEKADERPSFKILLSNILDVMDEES

TCR-induced tyrosine phosphorylation of ITK-BTK(SH3) in transfected Jurkat cells (anti-ITK IP, antiphosphotyrosine blot), reduction in signal intensity against wild type ITK [1]: 15% | reduction of the ITK-SLP-76 association against wild-type ITK [2]: 32%
B1: SLP-76 (natural protein)
chain: MALRNVPFRSEVLGWDPDSLADYFKKLNYKDCEKAVKKYHIDGARFLNLTENDIQKFPKLRVPILSKLSQEINKNEERRSIFTRKPQVPRFPEETESHEEDNGGWSSFEEDDYESPNDDQDGEDDGDYESPNEEEEAPVEDDADYEPPPSNDEEALQNSILPAKPFPNSNSMYIDRPPSGKTPQQPPVPPQRPMAALPPPPAGRNHSPLPPPQTNHEEPSRSRNHKTAKLPAPSIDRSTKPPLDRSLAPFDREPFTLGKKPPFSDKPSIPAGRSLGEHLPKIQKPPLPPTTERHERSSPLPGKKPPVPKHGWGPDRRENDEDDVHQRPLPQPALLPMSSNTFPSRSTKPSPMNPLPSSHMPGAFSESNSSFPQSASLPPYFSQGPSNRPPIRAEGRNFPLPLPNKPRPPSPAEEENSLNEEWYVSYITRPEAEAALRKINQDGTFLVRDSSKKTTTNPYVLMVLYKDKVYNIQIRYQKESQVYLLGTGLRGKEDFLSVSDIIDYFRKMPLLLIDGKNRGSRYQCTLTHAAGYP
